In publication PMC10376177, “Comparison of Fungal Thermophilic and Mesophilic Catalase–Peroxidases for Their Antioxidative Properties” (Antioxidants, 2023):

Molecular target: the molecule itself
Assay: native gel or EMSA

B1: MagKatG1, mesophilic catalase–peroxidase from Magnaporthe oryzae (enzyme)
chain: MGECPLRTANVAGGGTRNRDWWPNTLKLNILRQHTEATNPYDPNFDYAEAFKSLDYEGLKKDLRALMTDSQEYWPADFGHYGGLFVRMAWHSAGTYRVMDGRGGGGQGQQRFAPLNSWPDNVSLDKARRLLWPIKQKYGNKISWADLMLLTGNVALEDMGFKTFGFAGGRPDTWEADESTYWGGETTWLGNEVRYSSGNEGHKESGVIDGSESKKGHKDIHTRDLEKPVSAAHMGLIYVNPEGPDGIPDPVAAARDIRTTFSRMAMNDEETVALIAGGHTVGKTHGAAPSDNVGPEPEAAPIENQGLGWSNKHGSGKGPDTITSGLEVIWTKEPAKFTMNYLEYLFKYEWELTKSPAGANQWVAKNAEEFIPDAFDPSKKHKPRMLTTDLSLRFDPEYEKISRRFLENPEQFKDAFARAWFKLLHRDMGPRSRWLGPEVPKETLLWEDPIPTPDHPIIDGSDVDSLKKAILATGVAPSKLIQTAWASASTFRGGDKRGGANGARIRLEPQNKWEVNNPQQLAEVLKALEGVKADFEKSGKKVSIADLIVLAGVAAVEQAAGVPVPFTPGRGDATQEQTDVESFTHLEPAADAFRNYGKGTSRVTTEQIMVDRAQQLTLTAPELTVLVGGLRVLGANYDGSSHGVWTDKPGKLTNDFFVTLLDPYTSWKSVDGEVFEGTNSKSGKKLTGTRADLVFGSHSELRALAEVYGSADGQQKFTKDFVAAWDKVMNLDRFDVRRGIYDETRLKSKL
notes: also called Magnaporthe oryzae katG
- stoichiometry N: 2
